Measurements reported in patent publication US6897197 (ALBERT EINSTEIN COLLEGE OF MEDICINE OF YESHIVA UNIVERSITY, dated 2005).

Columns and labels:
[1] = biological target: T1, human MDM2, full length (CMV driven expression construct pCHDM1A) (human, UniProt Q00987 1-491); assay: low stringency co-immunoprecipitation (anti-FLAG IP, anti-MDM2 Western blot), 293T cells transfected with MDM2 and p19FLAG
T1 construct: Expressed in transfected cells; also called HDM-2
Protocol: (§1) For immunoprecipitations, subconfluent 293T cells were transfected with 3 µg each of the appropriate expression constructs shown in FIG. 3, and 80 µg of Lipofectamine reagent (Gibco BRL). […] Untransfected 3T3-DM cells were lysed in a low stringency buffer as above.

[2] = biological target: T2, endogenous MDM2 of untransfected 3T3DM cells (UniProt P23804 1-489); assay: anti-p19^ARF immunoprecipitation, anti-MDM2 Western blot, untransfected 3T3DM cells
T2 construct: 3T3DM is a mouse cell line; Detected with antibody 2A10; also called p90/p85
T2 sequence (P23804 whole entry): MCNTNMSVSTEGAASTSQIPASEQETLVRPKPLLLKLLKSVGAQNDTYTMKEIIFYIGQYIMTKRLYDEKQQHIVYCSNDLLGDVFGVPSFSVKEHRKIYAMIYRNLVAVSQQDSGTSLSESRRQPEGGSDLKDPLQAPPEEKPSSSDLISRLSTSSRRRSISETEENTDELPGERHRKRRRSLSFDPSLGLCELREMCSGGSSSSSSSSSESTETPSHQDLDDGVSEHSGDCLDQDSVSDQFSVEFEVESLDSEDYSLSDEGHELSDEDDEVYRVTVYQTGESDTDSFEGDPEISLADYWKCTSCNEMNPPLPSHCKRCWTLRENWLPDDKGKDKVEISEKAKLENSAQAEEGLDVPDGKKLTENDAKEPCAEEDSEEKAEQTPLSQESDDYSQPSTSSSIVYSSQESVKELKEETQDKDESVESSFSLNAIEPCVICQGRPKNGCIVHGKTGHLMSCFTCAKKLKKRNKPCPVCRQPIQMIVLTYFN
Protocol: as §1

T1 sequence (Q00987 whole entry): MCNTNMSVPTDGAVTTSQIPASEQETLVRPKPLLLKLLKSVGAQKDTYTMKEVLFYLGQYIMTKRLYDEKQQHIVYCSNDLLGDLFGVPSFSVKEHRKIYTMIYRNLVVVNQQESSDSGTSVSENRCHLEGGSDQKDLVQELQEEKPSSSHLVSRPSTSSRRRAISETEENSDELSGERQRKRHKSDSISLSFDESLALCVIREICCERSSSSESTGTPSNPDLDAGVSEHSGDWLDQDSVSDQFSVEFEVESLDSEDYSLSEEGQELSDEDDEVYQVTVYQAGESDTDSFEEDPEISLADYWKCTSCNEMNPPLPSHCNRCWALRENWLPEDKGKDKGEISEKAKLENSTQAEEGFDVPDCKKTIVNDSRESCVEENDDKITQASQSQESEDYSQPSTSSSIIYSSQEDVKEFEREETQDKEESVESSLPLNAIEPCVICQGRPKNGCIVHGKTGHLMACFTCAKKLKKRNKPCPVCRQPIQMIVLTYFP

Binder | binding result [1] | binding result [2]
FLAG epitope-tagged p19^ARF protein (other, mouse, UniProt Q64364 1-169, looked up, not shown: small tags and cut ends, Expressed from pcDNA in transfected 293T, SAOS2 or HeLa cells; also called p19^FLAG; p19FLAG) MGRRFLVTVRIQRAGRPLQERVFLVKFVRSRRPRTASCALAFVNMLLRLERILRRGPHRNPGPGDDDGQRSRSSSSAQLRCRFELRGPHYLLPPGARRSAGRLPGHAGGAARVRGSAGCARCLGSPAARLGPRAGTSRHRAIFAFRWVLFVFRWVVFVYRWERRPDRRA | binds | 
endogenous p19^ARF of untransfected 3T3DM cells (other, UniProt Q64364 1-169, looked up, Immunoprecipitated with rabbit polyclonal anti-p19^ARF antiserum) MGRRFLVTVRIQRAGRPLQERVFLVKFVRSRRPRTASCALAFVNMLLRLERILRRGPHRNPGPGDDDGQRSRSSSSAQLRCRFELRGPHYLLPPGARRSAGRLPGHAGGAARVRGSAGCARCLGSPAARLGPRAGTSRHRAIFAFRWVLFVFRWVVFVYRWERRPDRRA |  | binds
